Consider 3 molecules from publication doi:10.1101/2025.07.18.665471 (bioRxiv, 2025).

Where “and” joins values, the source holds several entries; their conditions need not be identical. Identical values can stand only once. Like-named read-outs stand apart in the source and are kept apart here.

Data set [1] has as its target T1, DNAJC12, wild type, human, full-length (human, UniProt Q9UKB3 1-198). The data set is described as follows: SEC. For orientation: In gel filtration, larger molecules generally elute earlier.
The data set “SEC-MALS” concerns the molecule itself. The data set is described as follows: SEC-MALS.
For data set [2], the target named is T1, DNAJC12, wild type, human, full-length. In words: BLI. (In general: Biolayer interferometry detects binding as a change in optical thickness at a sensor tip.)
For data set [3] the target is unchanged. The data set is described as follows: BLI. This is another data set of the same source.

T1 sequence (Q9UKB3 whole entry): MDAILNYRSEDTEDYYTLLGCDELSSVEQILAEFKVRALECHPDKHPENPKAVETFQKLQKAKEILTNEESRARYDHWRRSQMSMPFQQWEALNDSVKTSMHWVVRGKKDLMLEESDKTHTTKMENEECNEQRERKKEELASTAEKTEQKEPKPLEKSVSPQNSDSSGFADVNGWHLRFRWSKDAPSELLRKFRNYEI

B1: MBP-PAH(RD), regulatory domain of PAH (PAH(1-112)) fused to maltose binding protein (domain or fragment, human, UniProt P00439 1-112, looked up)
chain: MSTAVLENPGLGRKLSDFGQETSYIEDNCNQNGAISLIFSLKEEVGALAKVLRLFEENDVNLTHIESRPSRLKKDEYEFFTHLDKRSLPALTNIIKILRHDIGATVHELSRD
Turning to B1, the binding result in data set [1] is given as “binds”.

B2: PAH-p.R261Q, PKU-associated variant of phenylalanine hydroxylase (enzyme, human)
chain: MSTAVLENPGLGRKLSDFGQETSYIEDNCNQNGAISLIFSLKEEVGALAKVLRLFEENDVNLTHIESRPSRLKKDEYEFFTHLDKRSLPALTNIIKILRHDIGATVHELSRDKKKDTVPWFPRTIQELDRFANQILSYGAELDADHPGFKDPVYRARRKQFADIAYNYRHGQPIPRVEYMEEEKKTWGTVFKTLKSLYKTHACYEYNHIFPLLEKYCGFHEDNIPQLEDVSQFLQTCTGFRLRPVAGLLSSRDFLGGLAFQVFHCTQYIRHGSKPMYTPEPDICHELLGHVPLFSDRSFAQFSQEIGLASLGAPDEYIEKLATIYWFTVEFGLCKQGDSIKAYGAGLLSSFGELQYCLSEKPKLLPLELEKTAIQNYTVTEFQPLYYVAESFNDAKEKVRNFAATIPRPFSVRYDPYTQRIEVLDNTQQLKILADSINSEIGILCSALQKIK
Regarding B2, the binding result in data set [1] is given as “binds”.

B3: phenylalanine hydroxylase (PAH), wild type, human (enzyme, UniProt P00439 1-452, looked up)
chain: MSTAVLENPGLGRKLSDFGQETSYIEDNCNQNGAISLIFSLKEEVGALAKVLRLFEENDVNLTHIESRPSRLKKDEYEFFTHLDKRSLPALTNIIKILRHDIGATVHELSRDKKKDTVPWFPRTIQELDRFANQILSYGAELDADHPGFKDPVYRARRKQFADIAYNYRHGQPIPRVEYMEEEKKTWGTVFKTLKSLYKTHACYEYNHIFPLLEKYCGFHEDNIPQLEDVSQFLQTCTGFRLRPVAGLLSSRDFLGGLAFRVFHCTQYIRHGSKPMYTPEPDICHELLGHVPLFSDRSFAQFSQEIGLASLGAPDEYIEKLATIYWFTVEFGLCKQGDSIKAYGAGLLSSFGELQYCLSEKPKLLPLELEKTAIQNYTVTEFQPLYYVAESFNDAKEKVRNFAATIPRPFSVRYDPYTQRIEVLDNTQQLKILADSINSEIGILCSALQKIK
modifications: biotin (EZ-Link NHS-PEG4-Biotin), for the BLI only
As for B3, in “SEC-MALS”, the “stoichiometry N” value is 4 and 8. Further, the results for the Kd in data set [2] and in data set [3] were 508 ± 59 nM and 139 ± 19 nM, respectively.

The term stoichiometry N denotes the number of molecules, sites or subunits per partner or assembly. As a reminder, the Kd is a measure of binding affinity in units of concentration. A high value points to lower affinity.
